Measured values as given in patent US6773918B2, “Detection of phenols using engineered bacteria” (The Regents of the University of California, priority 1999, dated 2004).

Tests used:
[1] = tested on: Pdmp-lacZ reporter fusion; test: Liquid β-galactosidase assay, test strain AW101 (Pdmp-lacZ fusion) carrying pAW50 dmpR derivatives, exposed to phenols; type: cell-based, E. coli
Text: Reference will now be made in detail to the present preferred embodiments of the present invention, examples of which are shown in the accompanying drawings. Turning now to FIG. 1, the dmpR wt-N gene (See, e.g., Shingler and Moore, supra) carried on plasmid pAW50 served as the template for amplification of the dpmR sensor domain by mutagenic polymerase chain reaction (PCR). The products resulting from the mutagenic PCR were digested using Ndel and SacII and ligated back into a pAW50 plasmid fragment, from which the wild type Ndel-SacII region had been removed. […] Ligation products were electroporated into AW101 (trp::Pdmp-lacZ fusion). Transformants were initially selected for tetracycline resistance and then replicated onto plates containing X-gal and one of the test phenols. Colonies that developed more blue color than colonies containing wild type DmpR were selected for further analysis with liquid β-galactosidase assays. β-galactosidase activity is proportional to transcription of the Pdmp-lacZ reporter fusion and is, therefore, a measure of particular variant DmpR's ability to detect phenol or specific substituted phenols. This mutagenic procedure led to the identification of more than twenty DmpR derivatives with altered response to phenols. Five of these derivatives are representative of proteins which show significant promise as effective detectors of phenols listed as primary pollutants by the U.S. Environment Protection Agency.
AW101 was used as a test strain to identify and characterize changes in DmpR's sensing capacity subsequent to sensor domain mutagenesis. pAW50 derivatives were electroporated into AW101 and transformants were selected on Luria-Bertani (Difco, Detroit, Mich.) plates containing 10.5 μg/ml tetracycline. Transformants were then replica-plated onto M9 minimal medium (10) plates containing 0.2% glucose, 30 μg/ml tryptophan, 1 μg/ml thiamine, 10.5 μg/ml tetracycline, 0.25% 5-bromo-4-chloro-3-indoyl-β-D-galactoside (X-Gal), and either no inducer (NI) or 0.05 mM of a phenol derivative. Cells that formed blue colonies on plates containing a phenol derivative were subject to liquid β-galactosidase assays.
D. β-Galactosidase Assays. Overnight cultures of AW101 carrying pAW50 derivatives were diluted 1000-fold into Luria-Bertani broth containing 10.5 μg/ml tetracycline. When cells reached an OD595 nm between 0.60 and 0.90 as measured on a Lambda Bio uv/vis spectrophotometer (Perkin Elmer Corp. Analytical Instruments, Norwalk, Conn.), 500 μL samples were pelleted and immediately resuspended in 500 μL spent Luria-Bertani broth containing the appropriate phenol compound. […] Samples were pelleted and frozen at −70° C. for assay the following day.
Liquid β-galactosidase assays were performed using a modification of Miller's assay (Miller, J. H., 1972. “Experiments in Molecular Genetics,” Cold Spring Harbor Laboratory, Cold Spring Harbor, N.Y.). Cell sample pellets were thawed and resuspended in Z buffer. The optical density at 595 nm of each cell suspension was read in a microtiter plate using an automated microplate reader (BIO-TEK Instruments, Inc., Winooski, Vt.). Following the addition of 15 μL 0.1% sodium dodecyl sulfate and 25 μL HCCl3, the remaining cell suspension was vortexed for 30 s to lyse cells. The reaction was begun with the addition of 50 μL o-nitrophenyl-β-D-galactopyranoside (2.5 mg/ml) to the lysed cells. Reactions were incubated at 26° C. until stopped with the addition of 50 μL 1M Na2CO3. Color development of the reactions was read at OD415 on the microplate reader. Arbitrary units for graphing purposes were calculated as (1000×OD415)/(time)(OD595) where time is the reaction time in minutes. Equivalent cell volumes were read for both optical densities.

[2] = tested on: Pdmp-lacZ reporter fusion; test: β-galactosidase detection of phenols in contaminated soil by the bacterial test strain; type: cell-based, E. coli
Text: FIG. 5a compares the detection of 2,4-dichlorophenol by DmpR-B9 (SEQ ID No. 1 hereof) with that for unsubstituted phenol shown in FIG. 5b in contaminated soil, unsubstituted phenol being a natural effector of wild type DmpR. Detection of chemicals in contaminated soil is often difficult because soil may bind the phenols, making them less available to the test bacteria. […] The response of DmpR-B9 to 4 parts per million (ppm) 2,4-dichlorophenol in soil is six-fold higher than that of wild type DmpR. DmpR-B9′s response to 2.5 ppm phenol is four-fold better than that of wild type.

B1: DmpR-B21: engineered DmpR derivative with mutated sensor domain (SEQ ID No. 3 and No. 9) (protein)
chain: MPIKYKPEIQHSDFKDLTNLIHFQSMEGKIWLGEQRMLLLQFSAMASFRREMVNTLGIERAKGLFLRHGYQSGLKDAELARKLRPNASEVGMFLAGPQMHSLKGLVKVRPTGLDIDKEYGRFYAEMEWIDWFEVEICQTDLGQMQDPVCWTVLGYACAYSSAFMGREIIFKEVSCRGCGG
increase in β-galactosidase activity ([1]; 0.0025 mM solution of 2-chlorophenol (0.3 parts per million)): 60 fold | response (β-galactosidase activity) ([1]; 2,4-dichlorophenol at 0.025 mM (4 parts per million)): elicits a response

B2: DmpR-D9: engineered DmpR derivative with mutated sensor domain (SEQ ID No. 6) (protein)
chain: MPIKYKPEIQHSDFKDLTNLIHFQSMEGKIWLGEQRMLLLQFSAMASFRREMVNTLGIERAKGLFLRHGYQSGLKDAELARKLRPNASEVGMFLAGPQMHSLKGLVKVRPTELDIGREYGRFYAEMEWIDWFEVEICQTDLGQMQDPVCWTVLGYACAYSSALMGREIIFKEVSCRGCGG
response relative to wild type protein ([1]; 2-chlorophenol): nineteen

B3: DmpR-B31: engineered DmpR derivative with mutated sensor domain (SEQ ID No. 5) (protein)
chain: MPIKYKPEIQHSDFKDLTNLIHFQSMEGKIWLGEQRMLLLQFSAMASFRREMVNTLGVERTKGLFLRHGYQSGLKDAELARKLRPNASEVGMFLAGPQMHSLKGLVKVRPTELDIDKEYGRFYAEMEWIDWFEVEICQTDLGQMQGPVCWTVLGYACAYSSAFMGREIIFKEVSCRGCGG
response to most substituted phenols ([1]; 2,4-dichlorophenol, 2,4-dimethylphenol, 4-nitrophenol (FIG. 6a)): strong response | uninduced (NI) value ([1]; no inducer (no phenol)): relatively high

B4: DmpR-B9: engineered DmpR derivative with mutated sensor domain (SEQ ID No. 1) (protein)
chain: MPIEYKPEIQHSDFKDLTNLIHFQSMEGKIWLGEQRMLLLQSSAMASFRREMVNTLGIERAKGLFLRHGYQSGLKDAELARKLRPNASEVGMFLAGPQMHSLKGLVKVRPTELDIDKEYGRFYAEMEWIDWFEVEICQTDLGQMQDPVCWTVLGYACAYSSAFMGREIIFKEVSCRGCGG
response relative to wild type ([2]; 2.5 ppm phenol in soil): four | response relative to wild type DmpR ([2]; 4 parts per million (ppm) 2,4-dichlorophenol in soil): six | capacity to detect phenols in soil compared with wild type protein ([2]; contaminated soil): significantly better

B5: DmpR-B23: engineered DmpR derivative with mutated sensor domain (SEQ ID No. 4) (protein)
chain: MPIKYKPEIRHSDFKDLTNLIHFQSMEGKIWLGEQRMLLLQFSAMASFRREMVNTLGIERAKGLFLRHGYQSGLKDAELARKLRPNASEVGMFLAGPQMHSLKGLVKVRPTELDIDMEYGRFYAEMEWIDWFEVEICQTDLGQMQDPVCWTVLGYACAYSSAFMGREIIFKEVSCRGCGG
response relative to wild type DmpR ([1]; 0.5 ppm 2-chlorophenol, four-hour exposure): more than 20 fold | effect of four-hour exposure on detection signal (β-galactosidase activity units) ([1]; low concentrations of 2-chlorophenol): increases the detection signal | detection compared with wild type protein ([1]; six concentrations of 2-chlorophenol, 60 minute exposure): significantly better detectors

B6: DmpR-B17#2: engineered DmpR derivative with mutated sensor domain (SEQ ID No. 2) (protein)
chain: MPIKYKPEIQHSDFKDLTNLIHFQSMEGKIWLGEQRMLLLQFSAMASFRREMVNTLGIERAKGLFLRHGYQSGLKDAELARKLRPNASEVGMFLAGPQMHSLKGLVKVRPTELDIDKEYGRFYAEMEWIDWFEVEICQTDLGQMQDPVCWTVLGYACAYSSAFMGREIIFKEVSCRGCGG
response to low concentrations of phenol ([1]; 2,4-dichlorophenol): responds to low concentrations | response to low concentrations of phenol ([1]; 2-nitrophenol): responds to low concentrations | response to low concentrations of phenol ([1]; 4-nitrophenol): responds to low concentrations | detection compared with wild type protein ([1]; six concentrations of 4-chloro-3-methylphenol): significantly better detectors

B7: DmpR-D12: engineered DmpR derivative with mutated sensor domain (SEQ ID No. 7) (protein)
chain: MPIKYKPEIQHSDFKDLTNLIHFQSMEGKIWLGEQRMLLLQFSAMASFRREMVNTLGIERAKGLFLRHGYQSGLKDAELARKLRPNASEVGMFLAGPQMHSLKGLVKVRPTELDIDKEYGRFYAEMEWIDWFEVEICQTDPGQMQDPVCWTVLGYACAYSSAFMGREIIFKEVSCRGCGG
detection relative to wild type DmpR ([1]; 3 ppm 2,4-dichlorophenol): 10 fold | detection relative to wild type DmpR ([1]; 10 ppm 4-chloro-3-methylphenol): eight
